Values quoted from earlier work in publication PMC11195831.

Target: PD-1 (Homo sapiens) (UniProt Q15116)
Test: SPR

Sequence of PD-1 (Homo sapiens) (Q15116 25-170): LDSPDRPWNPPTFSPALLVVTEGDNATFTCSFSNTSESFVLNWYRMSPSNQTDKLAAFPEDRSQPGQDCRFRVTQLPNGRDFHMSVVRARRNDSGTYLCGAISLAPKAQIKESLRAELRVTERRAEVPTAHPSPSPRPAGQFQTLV

Substance	Kd [nM]
Dostarlimab	0.3
Retifanlimab	0.6
